Assay results taken from paper PMC12081870 (Communications Biology, 2025).

Assay: 15N NMR relaxation (T1, T2, NOE) of Sla1 SH3#1&2
Type: physicochemical, Saccharomyces cerevisiae
Parameters: Time Constant (T2) / T1 / T2: unit not given here
Conditions: fit A exp(-Bx), 11 peaks
From the text: Fig. 2 A structural analysis of Sla1 SH3 domains 1 and 2. A The predicted interface between the first two SH3 domains of Sla1 as modelled using Alphafold. SH3#1 is shown in light green and SH3#2 is shown in cyan. Residues predicted to form hydrogen bonds using the Pymol search function are shown as sticks and labelled with their respective residue numbers. Dashed black lines indicate interactions. The red line in the structure indicates residues 67–70 in the hinge between the SH3 domains; the magenta loop indicates residues 52–54. B Assignment of the ^1H ^15N HSQC spectrum of Sla1 SH3 domains 1 and 2. C^15N relaxation data for Sla1 SH3#1&2. The linker between domains is approximately residues 67–70 (shown with red line under the trace and in A), and the mobile region 52-54 is part of a loop (shown with magenta line below the trace and in A). The correlation time of 8.5 ns (derived from the trimmed ^15N T1/T2 ratio), matches that calculated for a rigid two-domain structure rather than two independent domains (8.8 and 4.5 ns, respectively).
To investigate further, we purified ^15N, ^13C labelled Sla1 SH3#1&2 and analysed using NMR. A full assignment was obtained (Fig. 2B) which confirmed the Alphafold structure. An important aspect when considering the function of tandem domains is the level of rigidity or flexibility between the domains. […] NMR was used to determine relaxation parameters (^15N R1, R2 and NOE) of ^15N-labelled SH3#1-2 (Fig. 2B). […] The structural unity of the two-domain structure explains why attempts to study SH3#2 alone were unsuccessful.
Experiments were carried out on Bruker DRX-600 and DRX-800 spectrometers fitted with cryoprobes. SH3 domains 1 and 2 were assigned using a standard set of HNCA/HN(CO)CA, HNCO/HN(CA)CO and CBCAHN/CBCA(CO)HN 3D spectra. The assignment has been deposited at BioMagResBank, with code 52650. SH3 domain-3 was assigned by comparison to data provided by Prof Ishwar Radhakrishnan (Northwestern University) for the same domain although with different residues at both ends. Titrations were conducted with three peptides (GenScript Biotech, UK) comprising the three PP motifs (Fig. 3A): p1 […] (residues 318–339); p2 […] (residues 330–361); and p3 […] (residues 375–397). Peptide solutions were prepared as concentrated stock solutions in the same buffer at the same pH and added stepwise to protein solutions. Shift changes were analysed by picking peaks in Felix (Felix NMR Inc, San Diego, CA), which were downloaded to text files and for determining Kd were analysed using Levenberg-Marquardt least squares fitting to the standard quadratic equation[63]. Analysis of the ^15N relaxation data was carried using CCPN Analysis[64].

B1: Sla1 SH3#1-2: SH3#1-2 (aa 5-131), tandem domains; sequence in b253 (protein)
chain: LGIYRAVYAYEPQTPEELAIQEDDLLYLLQKSDIDDWWTVKKRVIGSDSEEPVGLVPSTYIEEAPVLKKVRAIYDYEQVQNADEELTFHENDVFDVFDDKDADWLLVKSTVSNEFGFIPGNYVEPEN
modifications: 15N-labelled (NMR only); left off: GST, end not stated, cleaved
Time Constant (T2) (residue 39, 39AspH/39AspN): 104.622 | Time Constant (T2) (residue 40, 40AspH/40AspN): 92.3559 | Time Constant (T2) (residue 41, 41TrpH/41TrpN): 105.38 | Time Constant (T2) (residue 42, 42TrpH/42TrpN): 87.941 | Time Constant (T2) (residue 43, 43ThrH/43ThrN): 96.7782 | Time Constant (T2) (residue 44, 44ValH/44ValN): 79.239 | Time Constant (T2) (residue 45, 45LysH/45LysN): 89.2928 | Time Constant (T2) (residue 46, 46LysH/46LysN): 79.9381 | Time Constant (T2) (residue 47, 47ArgH/47ArgN): 96.0563 | Time Constant (T2) (residue 48, 48ValH/48ValN): 80.6125 | Time Constant (T2) (residue 49, 49IleH/49IleN): 93.7827 | Time Constant (T2) (residue 50, 50GlyH/50GlyN): 115.88 | Time Constant (T2) (residue 51, 51SerH/51SerN): 86.3946 | Time Constant (T2) (residue 52, 52AspH/52AspN): 168.141 | Time Constant (T2) (residue 53, 53SerH/53SerN): 144.016 | Time Constant (T2) (residue 54, 54GluH/54GluN): 154.977 | Time Constant (T2) (residue 55, 55GluH/55GluN): 101.598 | Time Constant (T2) (residue 57, 57ValH/57ValN): 100.05 | Time Constant (T2) (residue 58, 58GlyH/58GlyN): 89.0014 | Time Constant (T2) (residue 59, 59LeuH/59LeuN): 85.278 | Time Constant (T2) (residue 60, 60ValH/60ValN): 98.7206 | Time Constant (T2) (residue 62, 62SerH/62SerN): 97.5945 | Time Constant (T2) (residue 63, 63ThrH/63ThrN): 81.7496 | Time Constant (T2) (residue 64, 64TyrH/64TyrN): 104.147 | Time Constant (T2) (residue 65, 65IleH/65IleN): 90.7515 | Time Constant (T2) (residue 66, 66GluH/66GluN): 88.572 | Time Constant (T2) (residue 67, 67GluH/67GluN): 102.479 | Time Constant (T2) (residue 68, 68AlaH/68AlaN): 84.1741 | Time Constant (T2) (residue 70, 70ValH/70ValN): 100.257 | Time Constant (T2) (residue 71, 71LeuH/71LeuN): 80.9555 | Time Constant (T2) (residue 72, 72LysH/72LysN): 97.8301 | Time Constant (T2) (residue 73, 73LysH/73LysN): 97.0107 | Time Constant (T2) (residue 74, 74ValH/74ValN): 95.1713 | Time Constant (T2) (residue 75, 75ArgH/75ArgN): 95.2306 | Time Constant (T2) (residue 76, 76AlaH/76AlaN): 79.2788 | Time Constant (T2) (residue 77, 77IleH/77IleN): 85.3516 | Time Constant (T2) (residue 78, 78TyrH/78TyrN): 77.7575 | Time Constant (T2) (residue 79, 79AspH/79AspN): 86.8514 | Time Constant (T2) (residue 80, 80TyrH/80TyrN): 102.25 | Time Constant (T2) (residue 81, 81GluH/81GluN): 91.1679 | Time Constant (T2) (residue 82, 82GlnH/82GlnN): 103.776 | Time Constant (T2) (residue 83, 83ValH/83ValN): 96.58 | Time Constant (T2) (residue 84, 84GlnH/84GlnN): 115.172 | Time Constant (T2) (residue 85, 85AsnH/85AsnN): 109.146 | Time Constant (T2) (residue 86, 86AlaH/86AlaN): 101.454 | Time Constant (T2) (residue 87, 87AspH/87AspN): 93.3182 | Time Constant (T2) (residue 88, 88GluH/88GluN): 94.5093 | Time Constant (T2) (residue 89, 89GluH/89GluN): 99.1662 | Time Constant (T2) (residue 90, 90LeuH/90LeuN): 96.3149 | Time Constant (T2) (residue 91, 91ThrH/91ThrN): 78.2582 | Time Constant (T2) (residue 92, 92PheH/92PheN): 85.0538 | Time Constant (T2) (residue 93, 93HisH/93HisN): 82.1244 | Time Constant (T2) (residue 94, 94GluH/94GluN): 97.249 | Time Constant (T2) (residue 95, 95AsnH/95AsnN): 98.0824 | Time Constant (T2) (residue 96, 96AspH/96AspN): 93.6871 | Time Constant (T2) (residue 97, 97ValH/97ValN): 100.422 | Time Constant (T2) (residue 98, 98PheH/98PheN): 79.4419 | Time Constant (T2) (residue 99, 99AspH/99AspN): 97.6801 | Time Constant (T2) (residue 100, 100ValH/100ValN): 97.751 | Time Constant (T2) (residue 101, 101PheH/101PheN): 95.7132 | Time Constant (T2) (residue 102, 102AspH/102AspN): 87.4197 | Time Constant (T2) (residue 103, 103AspH/103AspN): 77.1058 | Time Constant (T2) (residue 104, 104LysH/104LysN): 88.8779 | Time Constant (T2) (residue 105, 105AspH/105AspN): 102.407 | Time Constant (T2) (residue 106, 106AlaH/106AlaN): 137.978 | Time Constant (T2) (residue 107, 107AspH/107AspN): 99.1634 | Time Constant (T2) (residue 108, 108TrpH/108TrpN): 105.531 | Time Constant (T2) (residue 109, 109LeuH/109LeuN): 92.4282 | Time Constant (T2) (residue 110, 110LeuH/110LeuN): 99.3469 | Time Constant (T2) (residue 111, 111ValH/111ValN): 90.5694 | Time Constant (T2) (residue 112, 112LysH/112LysN): 92.6618 | Time Constant (T2) (residue 113, 113SerH/113SerN): 88.7102 | Time Constant (T2) (residue 114, 114ThrH/114ThrN): 88.1188 | Time Constant (T2) (residue 115, 115ValH/115ValN): 99.4179 | Time Constant (T2) (residue 116, 116SerH/116SerN): 105.651 | Time Constant (T2) (residue 117, 117AsnH/117AsnN): 79.9936 | Time Constant (T2) (residue 118, 118GluH/118GluN): 87.975 | Time Constant (T2) (residue 119, 119PheH/119PheN): 95.7684 | Time Constant (T2) (residue 120, 120GlyH/120GlyN): 81.3349 | Time Constant (T2) (residue 121, 121PheH/121PheN): 97.0012 | Time Constant (T2) (residue 122, 122IleH/122IleN): 86.8543
